The target of assay [1] is T1, human PDL1 expressed on cells (human, UniProt Q9NZQ7 19-290). The experiment in a line: cell-based or functional assay.
The target in assay [2] is T2, human PDL1 (recombinant, soluble) (human, UniProt Q9NZQ7 19-238).
T2 construct: also called hPDL1; hPD-L1
The experiment in a line: PDL1/PD-1 competition ELISA with human serum albumin. The procedure: (§1) ELISA microplates coated overnight at 4° C. with 4 μg/ml human PD-1 were washed three times with 450 μl wash buffer per well. Plates were blocked for 1 hour at room temperature by adding 300 μl of PBS with 1% BSA and 0.2% tween (dilution buffer) to each well. […] The mixtures were pre-incubated for 1 hour at room temperature under gentle agitation on a rotating mixer (21 rpm) and added to the microplates after 3 wash cycles with 450 μl wash buffer per well. Plates were incubated for 1.5 hours at room temperature under gentle agitation, then 10 ng/ml streptavidin-polyHRP40 was added to each microplate well after three washes with 450 μl of wash buffer per well. After 1 h incubation at RT, plates were washed three times with 450 μl wash buffer and TMB substrate solution was added. The enzymatic reaction was stopped after 6 minutes by addition of 1 M HCl and absorbance was measured at 450 nm using 690 nm as a reference wavelength. For calculation of IC₅₀ values, a four-parameter logistic (4PL) curve fit was performed in Graph Pad Prism using reference subtracted values.

For assay [3], the target named is T2, human PDL1 (recombinant, soluble). Kind of assay: PDL1/PD-1 competition ELISA; PD-1 coated, biotinylated PDL1 1 ng/ml. The procedure: as §1
Assay [4] shares this target. Kind of assay: PDL1/B7-1 competition ELISA; B7-1 coated, biotinylated PDL1 40 ng/ml. The protocol:
as §1, with “B7-1” for “PD-1”

For assay [5] the target is unchanged. The experiment in a line: PD-1/PDL1 competition ELISA in the presence of 1 mg/ml human serum albumin: biotinylated human PDL1 pre-incubated with the inhibitor, then binding to plate-coated human PD-1; blocked ligand PD-1. The protocol:
as §1

For assay [6], the target named is T1, human PDL1 expressed on cells. The experiment in a line: cell-based or functional assay. The source holds these as a separate data set.
The target of assay [7] is T2, human PDL1 (recombinant, soluble). The experiment in a line: PDL1/PD-1 competition ELISA; PD-1 coated; scFv. The protocol:
(§2) ELISA plates were coated by adding 50 μl of PBS containing 4 μg/ml PD-1 overnight at 4° C. Next day, plates were washed three times in overflow mode with 450 μl wash buffer (PBS, 0.005% Tween 20) per wells and 300 μl of blocking buffer (PBS, 1% BSA, 0.2% Tween 20) were added to each well for 1 h at RT on a nutating mixer. […] ELISA pates were washed 3 times in overflow mode with 450 μl wash buffer and two times 50 μl of each dilution was added in adjacent wells of the ELISA plates in order to generate duplicates. Plates were incubated 90 minutes at RT under gentle agitation. After three washes with 450 μl of washing buffer, 50 μl of 10 ng/ml streptavidin-polyHRP40 were added to each wells of the ELISA plates. After 1 h incubation at RT, plates were washed three times with 450 μl wash buffer and developed for 5 to 10 minutes after addition of 50 μl TMB. Finally, the enzymatic reaction was stopped by addition of 50 μl of 1 M HCl and plate was read at 450 nm using 690 nm as a reference wavelength.

Assay [8] shares this target. Kind of assay: PDL1/B7-1 competition ELISA; B7-1 coated; scFv. The protocol: as §2, with “μg/ml B7-1” for “μg/ml PD-1”, “of” for “of 10 ng/ml”, “streptavidin-polyHRP40 was” for “streptavidin-polyHRP40 were”, “ELISA plate.” for “ELISA plates.”
The target in assay [9] is T3, Fc tagged human PDL1 (human, UniProt Q9NZQ7 19-238).
T3 construct: also called PDL1-Fc chimeric protein (human); not shown: Fc tag
The experiment in a line: SPR Biacore T200; Fc tagged PDL1 captured; scFv 0.12-30 nM. The procedure: (§3) After each analyte injection cycle, the CM5 sensor chip was regenerated and new antigen was captured. The scFvs were injected as analyte using a dose response multicycle kinetic assay with concentrations of the analyte ranging from 0.12 to 30 nM diluted in running buffer for 5 min and dissociation of the protein was allowed to proceed for 12 min. Obtained sensorgrams were fitted using the 1:1 binding model.

The target of assay [10] is T1, human PDL1 expressed on cells. The experiment in a line: flow cytometry on CHO-PDL1 cells; scFv detected by APC labelled protein-L.
For assay [11], the target named is cynomolgus PDL1, recombinant (Sino Biological) / PDL1-Fc chimeric protein (cynomolgus (Macaca fascicularis), UniProt G7PSE7 19-238). The experiment in a line: SPR Biacore T200; cynomolgus PDL1 (Sino Biological) captured; scFv as analyte. The protocol: as §3
cynomolgus PDL1, recombinant (Sino Biological) / PDL1-Fc chimeric protein, sequence (G7PSE7 entry or part of it mutant limits assumed): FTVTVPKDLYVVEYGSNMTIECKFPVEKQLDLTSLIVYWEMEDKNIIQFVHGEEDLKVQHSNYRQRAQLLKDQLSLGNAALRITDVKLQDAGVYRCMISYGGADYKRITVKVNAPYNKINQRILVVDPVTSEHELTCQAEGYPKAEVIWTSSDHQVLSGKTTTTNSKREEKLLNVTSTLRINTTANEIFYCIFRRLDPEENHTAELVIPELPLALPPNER
Assay [12] has as its target T4, Fc tagged human PDL2 (human, UniProt Q9BQ51 20-219).
T4 construct: not shown: Fc tag
T4 sequence (looked up): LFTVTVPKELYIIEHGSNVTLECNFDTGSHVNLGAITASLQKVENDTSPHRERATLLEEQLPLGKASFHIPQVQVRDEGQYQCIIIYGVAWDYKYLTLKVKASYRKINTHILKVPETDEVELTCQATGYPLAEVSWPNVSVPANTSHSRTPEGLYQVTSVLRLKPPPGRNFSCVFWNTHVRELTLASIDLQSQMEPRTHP
The experiment in a line: SPR Biacore T200; Fc tagged human PDL2 captured; scFv as analyte. The procedure:
Humanized scFvs were tested for binding to PDL2 by SPR analysis on a T200 device (Biacore, GE Healthcare). In this experiment, Fc tagged human PDL2 was captured using the Human Antibody Capture kit from GE healthcare. After each analyte injection cycle the CM5 sensor chip was regenerated and new antigen was captured. The scFvs were injected as analyte at a concentration of 180 nM diluted in running buffer for 5 min and dissociation of the protein was allowed to proceed for 12 min.

Some results are limits rather than exact numbers.

B1: PRO1057 (38_02_A04 sc01 scDb-i/33-03-G02 sc01 scDb-o/mxr HSA (23-13-A01-sc03, sk17sh4)) (other)
chain: DIQMTQSPSSLSASVGDRVTITCQASQSINDYLAWYQQKPGKAPKLLIYKASTLASGVPSRFSGSGSGTDFTLTISSLQPEDFATYYCQQGYIITDIDNVFGTGTKVTVLGGGGGSQVQLQESGPGLVKPSETLSLTCKVSGFSFSNSYWICWIRQPPGKGLEWIGCTFVGSSDSTYYANWAKGRVTISVDSSKNQFSLKLSSVTAADTAVYYCARHPSDAVYGYANNLWGQGTLVTVSSGGGGSGGGGSGGGGSGGGGSIQMTQSPSSLSASVGDRVTITCQASQSINNVLAWYQQKPGKAPKLLIYRASTLASGVPSRFSGSGSGTDFTLTISSLQPEDFATYYCQSSYGNYGDFGTGTKVTVLGGGGGSQVQLQESGPGLVKPSETLSLTCKVSGFSFSSGYDMCWIRQPPGKGLEWIGCVVAGSVDITYYASWAKGRVTISVDSSKNQFSLKLSSVTAADTAVYYCARKDAYSDAFNLWGQGTLVTVSSGGGGSGGGGSVVMTQSPSSLSASVGDRVTITCQASQIISSRSAWYQQKPGQPPKLLIYQASKLASGVPSRFSGSGSGTDFTLTISSLQPEDFATYYCQCTYIDSNFGAFGGGTKLTVLGGGGGSGGGGSGGGGSGGGGSEVQLVESGGGLVQPGGSLRLSCAASGFSFSSSYWICWVRQAPGKGLEWVGCVFTGDGTTYYASWAKGRFTISRDNSKNTVYLQMNSLRAEDTATYFCARPVSVYYYGMDLWGQGTLVTVSS
Consider B1, for which, in [1], the “NF-AT potency assay IC50 (with HSA)” value turned out to be 0.665 µg/mL. The “fold higher IC50 in presence of human serum albumin” value in [2] was around 2 fold. For the same molecule, the IC50 in assay [3] was determined as 0.00861 µg/mL; in assay [4] it was 0.0163 µg/mL. In [5], the “IC50 (read off the curve)” value was around 0.02 µg/mL.

B2: PRO830 (33-03-G02-sc01 scFv) (scFv)
scFv: DIQMTQSPSSLSASVGDRVTITCQASQSINDYLAWYQQKPGKAPKLLIYKASTLASGVPSRFSGSGSGTDFTLTISSLQPEDFATYYCQQGYIITDIDNVFGTGTKVTVLGGGGGSGGGGSGGGGSGGGGSQVQLQESGPGLVKPSETLSLTCKVSGFSFSSGYDMCWIRQPPGKGLEWIGCVVAGSVDITYYASWAKGRVTISVDSSKNQFSLKLSSVTAADTAVYYCARKDAYSDAFNLWGQGTLVTVSS
notes: also called 33-03-G02 CDR
For B2, in assay [6], the “reporter gene assay IC50” value turned out to be 0.0375 µg/mL and the “reporter gene assay Maximum Inhibition (%)” value was determined as 105%. Also, in [1], the “NF-AT potency assay IC50” value was 0.0429 µg/mL. Also, in assay [7], the IC50 was 0.00345 µg/mL and the “Maximum Inhibition (%)” value came out at 99.8%. In addition, in assay [8], the IC50 stood at 0.00611 µg/mL and the “Maximum Inhibition (%)” value was found to be 94.5%. Moreover, in assay [9], the koff was found to be 0.000159 s⁻¹. Moreover, in [3], the IC50 was found to be 0.0034 µg/mL. Also, the IC50 in assay [4] is 0.0129 µg/mL. In assay [10], this molecule showed an EC50 of 0.0202 µg/mL. For the same molecule, in assay [11], the “KD, cyno/KD, human” value was determined as 0.97; the Kd was 0.074 nM; the koff turned out to be 0.000182 s⁻¹; the kon worked out at 2.46e+06 M⁻¹ s⁻¹.

B3: PRO1183 (33-03-G02-sc03 scFv) (scFv)
scFv: DFQLTQSPSSLSASVGDRVTITCQASQSINDYLAWYQQKPGKSPKLLIYKASTLASGVPSRFSGSGSGTDFTLTISSLQPEDFATYYCQQGYIITDIDNVFGTGTKVTVLGGGGGSGGGGSGGGGSGGGGSQSQLQESGPGLVKPSETLSLTCKASGFSFSSGYDMCWVRQPPGKGLEWIACVVAGSVDITYYASWAKGRVTISKDSSKNQVSLKLSSVTAADTAVYFCARKDAYSDAFNLWGQGTLVTVSS
notes: also called 33_03_G02 sc03 Full
Turning to B3, in assay [6], the “reporter gene assay IC50” value worked out at 0.00998 µg/mL and the “reporter gene assay Maximum Inhibition (%)” value is 102%. In [7], the half-inhibitory concentration (IC50) is 0.00036 µg/mL and the “Maximum Inhibition (%)” value stood at 99.8%. For the same molecule, in assay [8], the IC50 was 0.000977 µg/mL and the “Maximum Inhibition (%)” value amounted to 95.4%. In assay [9], the Kd is below 0.0021 nM, the koff is below 1e-05 s⁻¹ and the kon amounted to 4.77e+06 M⁻¹ s⁻¹. The binding result in assay [12] was “no binding (tested: 180 nM)”. Besides, in assay [11], the “KD, cyno/KD, human” value was below 5.58; the Kd turned out to be 0.0117 nM; the koff turned out to be 1.82e-05 s⁻¹; the kon stood at 1.55e+06 M⁻¹ s⁻¹.

The values above are taken from patent US20200283528A1 (NUMAB THERAPEUTICS, published 2020).
